Measurements taken from the DeepSol protein solubility set.

Assay: soluble on expression in E. coli; label from the status in PepcDB or PDB records

| Sequence | soluble on expression in E. coli |
| --- | --- |
| MRGSHHHHHHGSACMFSNKTRQDSIQKMQQEELDLLIIGGGITGAGVAVQAAASGIKTGLIEMQDFAEGTSSRSTKLVHGGIRYLKTFDVEVVADTVGERAVVQGIAPHIPKPDPMLLPIYEDEGATTFNMFSVKVAMDLYDKLANVTGTKYENYTLTPEEVLEREPFLKKEGLKGAGVYLDFRNNDARLVIDNIKKAAEDGAYLVSKMKAVGFLYEGDQIVGVKARDLLTDEVIEIKAKLVINTSGPWVDKVRNLNFTRPVSPKMRPTKGIHLVVDAKKLPVPQPTYFDTGKQDGRMVFAIPRENKTYFGTTDTDYQGDFTDPKVTQEDVDYLLDVINHRYPEANITLADIEASWAGLRPLLIGNSGSPSTISRGSSLEREPDGLLTLSGGKITDYRKMAEGALRLIRQLLKEEYGIETKEIDSKKYQISGGNFDPTKLEETVTELAKEGVAAGLEEEDATYIADFYGTNARRIFELAKEMAPYPGLSLAESARLRYGLEEEMVLAPGDYLIRRTNHLLFERDQLDEIKQPVIDAIAEYFGWTEEEKAQQTKRLEALIAESDLRELKGEK | soluble |
| MGSDKIHHHHHHMAQVLWIIQIISKGLVRTLRFKAHILRMILLGSLGVAIHVSVVNAAVTDNSLPQESIPLVQGFIDAVKAHDRQAIADYMAYPIKRTNPIPAINTPEELLKRFDQVFDPEILETIAQSQVEADWQAMGWRGIMLGSGTIWMDFDGKITAVNYQTPAETKLKAELIANQKTGLHESVSQFVSPELAWQTAKFTIRVDNMGNSQYRYASWAKGKPLSEKPDLVLNQGKLVFDGSGGNHSFQFTSGPYLYVCDVIVLGTSDSPIGELVVFKHDRVLLREPAIKAE | not soluble |
| SNAMKKKDMNKQVKIQDAVAAIILAEGPAGVSTTKVAKRVGIAQSNVYLYFKNKQALIDSVYARETNRILSTTDLDRLSDSTIDVTTRIRLYVQQVYDYSLANPDSLTIIQQIKALNGQGMTISAADADPNNIVANLLTAAIDAKVIKQLPVSLHMGVVFSTIHTHTTNISKGRYAQDQYTFGDIFQMIWDAMKQD | soluble |
| MHSKMDCVSRSPLFSPLAPAVKAKLITVTHHRKFYQKGQLIRQPLDHQEGMLILDEGTAKIYALAANGKEKIIELLRSGDVVGQHWLFAPHENQGFIQATSDAWVCSIQYDDFQRLLGESASLSLAMINNFGNQLIEAEKNQLRRDLLDAKARLMAYLRDCAVESGQIEFELPLKKKELANILGITPETLSRQFKQLAAEGQIIVNKRQITIC | not soluble |
| MSWIPFKIGQPKKQIVSKTVERDFEREYGKLQQLEEQTKRLQKDMKKSTDADLAMSKSAVKISLDLLSNPLCEQDQDFLRMVTALDTAMKRMDAFNQEKVNQIQKTVIEPLKKFGSIFPSLNMAVKRREQALQDYGRLQAKVEKYEEKEKTGPVLAKLHQAREELRPVREDFEAKNKQLLDEMPRFYNSRLDYFQPSFESLIRAQVIYYSEMHKIFGDLTQQLDQPGHSDEHRERENETKLSELRALSIVADD | not soluble |
| MGSDKIHHHHHHMTKKITTHLESGLFKGKPRQKTVQHRNATTTPEMRQFIQQSDYSVSQLSKILNISEATVRKWRKRDSIDNTPNTPHKLNTTLSPMEEYVMLGLRYQLKMPLDRLLKVTQEFINPNVSRSGLARCLKRFGVSKLDEFDSPFVPEKFFNQLPITQGADIQTYTVNPKTLADTLSLPSPDPDNVVQVVSLSIPPQLTKQQAYSVLLGVDFKSDWVYLDIYQDSHTQASNRYITHVLKHGPFHLRKLLVRNYHTFLARFPGASQPAAVSTSTIDAAGSQHQITEPQLSNGDSYEPIQ | not soluble |
| MGSITENTSWNKEFSAEAVNGVFVLCKSSSKSCATNDLARASKEYLPASTFKIPNAIIGLETGVIKNEHQVFKWDGKPRAMKQWERDLTLRGAIQVSAVPVFQQIAREVGEVRMQKYLKKFSYGNQNISGGIDKFALEGQLRISAVNQVEFLESLYLNKLSASKENQLIVKEALVTEAAPEYLVHSKTGFSGVGTESNPGVAWWVGWVEKETEVYFFAFNMDIDNESKLPLRKSIPTKIMESEGIIGG | soluble |
| MSLIPIDYLRASRKGREVRPRYLNDDKIASEVINMAKSAKTLGEFRNAVELISSDKKLVRGLAHVLEQLIEIEKIDSKLVTRTRLEVFKAASALGYPLTEEERERVFQTVAARLKMGVNEVKALFLKAYEENRLIVKAPDIQPKQLVEMYNLALIQALLFKSLYVKALLPNAPALLKGLIRAVKGLGLMYIVEINGGQLEFRFDGPVSALRQTERYGTRLAKLVPYITSAEKWEIEAQVKLGERIYVFKESGRTAPPLPKTPPHAEQFDSLVEQEFYKQVSKICHVEREPEALVVDGRVYIPDFKIGDLYVEIVGFWTPDYLKRKYEKITKVGKPLLVLVSEELAMATWKQLMPNVVVFKDRPRLSDVFKYIKPYCVNHREGHHHHHH | not soluble |
| MVLQHQFDGLLEVMPENPRKKLRFTSRHIAAVNRYLDDKYFDPKEEKWSNLHPKYRIVLENLIRQTGPRLSPQVTLFLPNTFNGAFAPRQPFGLPSYFYHTCKKAESITQATHAMNQEYTVKMKNLNDQIDAYIYDTHLDILKVTEKRGDYLKNIPHDFGEHPDNPRNGQDNPKIELEHREILWNGLKVVLENGRFYETSTTETNVVEIFLNDELLNDKLYILKAEFFAAFYASEEATQIEVMVLFDNYFMAGGTIQYGEKLVCHLQEIPGTYGTTSFSCSSDFKSMVRKCGLPPIPRIGSPWNSDLMESIAELQQAIIRLENRVYDKDYIGKYTHENGGFIEAYCASLKNLSNTLYLLEEGTIELPAHSKNWTPREKLAYLSNFAPEKEMTSCEIGKPCASFKMIIGLAKSLRKNPYNFSFSGELLAEFSFQIRMAMLSMYLVLERNLPDAPHDNSQFVMTTLSHFRRLYIDNVKKIYQIFPHFPVEMRPVVLDVMCQRATPANYQEILEIYSYEPDMVTKMVQKYPYILLFTPHVTRPPIKLIRDFSEYMEKEMMSSEQAQMSRVDVIVLEENEPDGQESGVDYILARSNKRARVDFEKLDLLLESIMPEEAPARDYRKNTSEGHLAEIFGPTNNEEAEEEPSLPSCSYSTPKRVNRAKPALDSPSGNLRTANKDQVDLLDNVMQRSEKRQWKM | not soluble |
| TELKPLLIELGTEELPVNALPNLSRAFFEGVLAGLERRGIVVDHGEAKSLSTPRRLAVLLTAVAVEQPKQYRELFGPYLNTAFDTEGKPTKALEGFAAKCGVNWRTLERIRDTKGERFVHRVVVPGERTDALLPGILTEAIAGMPIPKPMRWGAHEYLFARPVHWLVMLFGQDVVEAEIMGVKAGRISRGHRFLYDKPVSLSGPQNYIDVLQAAYVLVDPAARRARIVAEIEAVARQVGGVARITEDNVAQVVNLVEWPSAVLCSFERVFLEVPQEALIQTMEVNQKFFPVLDSLGKLTEKFIGIANIESNDVAEVAKGYERVIRPRFSDAKFFFNEDLKQGLKAMGERLRTVTYHAKLGTLADKVARVLVLAEAIAPQIGVDPLLARRVALLSKNDLQSRMVNEFPELQGVAGHHYALISGELPEVAMAIEDAYRPRFSGDEIARSPLGKVLGLAERLDTLACGFAVGMKPTGNKDPFGLRRNALGLARTIIESRFDLDLKVLLDQASDWVAFATTIEQERHAQESVKQSKKEAAVKHSVPQVSDEKSARIEELYDFIVERLRGYYADKGIPTTHFNAVAELKPVS | not soluble |
| MGSDKIHHHHHHMWFKNLKIYRLSAPWALNGDQLEECLARFAYQGGNNLEMQSLGWISPRENGLLAHTLNGQILLTLRAEKKLLPTTVVNQVAKARAQEIEEQQGYKPGRKQMKEIKERVTDELLPKAFSIYRDTRVWIDTVNHWLVIDAAASAKADEVIGLLVKTIDPLPLDNLYVEQSPAAAMTGWLAADEAPANFSIDQDTELRASGESRAAIRYVKHSIDVDDVRRHIQSGKQCTRLAMTWADRVSFVLTESLDVKRVAPLDVLKENPDAATQNDDEKFDSDMTLMTGEVAKLLAELVDSLGGEKRV | not soluble |
| MDPTQHRKAARPCDARRVLVLQGGGALGAYQAGAYQALCHHDFEPQWLAGISIGAINAAIIAGNPREQRVEKLKQFWEMASSPVPWQPLLRDDHVHSLFNETSAAMIATFGVPGFFTPRFPPTHLLPSGKPSNLSYYDTAPLRSTLERLVDFDRLNHNGIRLSVGAVNIATGNFVYFDTTKQIIGPEHIMASAALPPGFPAIEIDGEHYWDGGVASNTPLDYVL | not soluble |
| MTPDVLFESLWQDYIQRLCPSAAKVHQLLQEDEALINDHIALRTFNVEPLGIETLAKPFLAAGYKACGDYVFESKKLVAKHYEHPDPKQPKVFISELKVEECSPDLQDIVAKLASQVDAEKLSGSAFLHGGRLWDLSFADYQTLAKESEYASWLAAHGYGANHFTVSVNQLNQHDEVKQVNDHLRQAGFVINESGGEVKGSPEVLLEQSSTMADKVPVTFEEGLEIIPGGFYEFAKRYPMENGELYPGFVAASADKIFESTNGLEHHHHHH | soluble |
| MDNFENLSTKDSFPEHFRRAVRGIFPDSQLPDEFFLVVYRDGKFERSLQPTATFAGRKAPVVIIPQWKEKHTLEIGNYRKVVDEEFYQIGGKMIYAGRDIFIEDVPGLYRNIDMVFLDGEKECIYRDGFLMMEEKILKIEEPVDVVDGIVITRHRMGSKEIDDTILFRWNNFVLTASGFLVDIKGKWSWKVSNAPVEFSFQGDIFYVLDVCGFLRSYNLKTRQLLWEKKFEGAWGLDSSKDRVFLGAGDEVLVLNAQDGETIERMEADDFAVWKGRLLVYKDGKVDGEDMEGFFIRNFGMPLFVSGKRVVMFGTEKKEFEEVEKVRLFDWGTVIKAGDELWLIRRD | not soluble |
| MGSDKIHHHHHHMHNHPAKRINSIKLCLDVKVALTPQTESRDMAASSKDAAFWSKISRKYAADPIRNMDGYLQTLDRTKSYLKPEDHVLEIGCGTGSTALLLAPHVAHITGTDLAPGMIEIAAEKRAKEGLENVTFKVAETLDHNPQDGAYDAILAHNLLHLLHDLDQSLQRIAALTKTGGVFISKTVCAPKAGGIKYALIRALAIPLMQRIGKAPYVNFISVPDLERRIERAGFEICEVISQPGLMQSHYVVARKL | not soluble |
| MGEKIMKSMEIRSSEITTSGAGTLTGYVVRWDKLSELLWGEFYEKFQRGAFTEWLAAGNDVRGLYEHDHSMLLGRTRSGTLKLEEDETGLRFELTPPDTSTGRDVIELVKRGDISGMSFGFRSRKDVWDTTTDPCVRTVLVAELYEITVTSVPAYPDSGVELARRSLYEQHPEKMPRADNRRWWADLAGV | not soluble |
| MSTLLDRVPCTIVTGFLGAGKTTLLRGLLEKLDGKRLAIIVNEFGDIGIDGEILKGCGIESCPEENIVELANGCICCTVADDFQPAIEQILSRQPKVEHILIETSGLALPKPLVQAFQWPAIKSRVTVDAVVAVVDGAALAEGQVAHDMEALAAQRANDEALDHDDPVEEVFEDQVACADLIVLTKADLLDDAGLEKAKAHILEHLPKAAKIVVASNGAIDPTVLIGLGLAVEEDIENRRTHHDGELDHEHDDFDSFVIDLPAVTDPEALAARIAQTAAAENVLRIKGFIEVATKPMRLQVQAVGSRVNHYYDRPWAAGEERRSRLVVIGEKGINREKIEQMLAA | not soluble |
| IDRMDRFALRFRALQNQYEQHKSPMRGLCGMRAGLIPHQLFIAHEVGRRYAPRVLLADEVGLGKTIEAGMIIHQQVLSGRAERVLIVVPETLQHQWLVEMMRRFNLHFSIFDEERCVEAYADSENPFDTAQFVLCSLDFIRKSKRRFEQVVEADWDLLVVDEAHHLEWNQTKPSREYQVIEAIAEETPGVLLLTATPE | not soluble |
| TKEHRAAARKIAGESFVLLKNEGLSPTLAPVLPLSPTGTIAVIGPLANTRSNMPGTWSVAAVLDKSPSLVEGLTEWVGNQGKILYAKGSNLIGDAAYEERATMFGRSLNRDNRTDQQLLDEALKIASQADVIVAALGESSEMSGESSSRTNLNLPDVQHTLLEALLKTGKPVVLVLFTGRPLVLNWEQEHVPAILNVWFGGSEAGPAIGDVLFGAVNPGGKLTMTFPKSVGQIPLYYAHKNTGRPLKEGKWFEKFRSNYLDVDNDALYPFGYGLSYTTF | not soluble |
